Experiment [1] has as its target T1, human KLB expressed on cells (human, UniProt Q86Z14 53-1044).
T1 construct: on transfected 293 / HEK293 cells; also called hKLB; beta-Klotho
As to the kind of experiment: FACS on 293 cells expressing hKLB, antibody at 0.8 µg/ml, median shift.

A further experiment concerns the target T2, rabbit KLB (+N-ter FLAG) (rabbit).
T2 construct: expressed from KLB cDNA on HEK293T cells and read by FACS
T2 chain: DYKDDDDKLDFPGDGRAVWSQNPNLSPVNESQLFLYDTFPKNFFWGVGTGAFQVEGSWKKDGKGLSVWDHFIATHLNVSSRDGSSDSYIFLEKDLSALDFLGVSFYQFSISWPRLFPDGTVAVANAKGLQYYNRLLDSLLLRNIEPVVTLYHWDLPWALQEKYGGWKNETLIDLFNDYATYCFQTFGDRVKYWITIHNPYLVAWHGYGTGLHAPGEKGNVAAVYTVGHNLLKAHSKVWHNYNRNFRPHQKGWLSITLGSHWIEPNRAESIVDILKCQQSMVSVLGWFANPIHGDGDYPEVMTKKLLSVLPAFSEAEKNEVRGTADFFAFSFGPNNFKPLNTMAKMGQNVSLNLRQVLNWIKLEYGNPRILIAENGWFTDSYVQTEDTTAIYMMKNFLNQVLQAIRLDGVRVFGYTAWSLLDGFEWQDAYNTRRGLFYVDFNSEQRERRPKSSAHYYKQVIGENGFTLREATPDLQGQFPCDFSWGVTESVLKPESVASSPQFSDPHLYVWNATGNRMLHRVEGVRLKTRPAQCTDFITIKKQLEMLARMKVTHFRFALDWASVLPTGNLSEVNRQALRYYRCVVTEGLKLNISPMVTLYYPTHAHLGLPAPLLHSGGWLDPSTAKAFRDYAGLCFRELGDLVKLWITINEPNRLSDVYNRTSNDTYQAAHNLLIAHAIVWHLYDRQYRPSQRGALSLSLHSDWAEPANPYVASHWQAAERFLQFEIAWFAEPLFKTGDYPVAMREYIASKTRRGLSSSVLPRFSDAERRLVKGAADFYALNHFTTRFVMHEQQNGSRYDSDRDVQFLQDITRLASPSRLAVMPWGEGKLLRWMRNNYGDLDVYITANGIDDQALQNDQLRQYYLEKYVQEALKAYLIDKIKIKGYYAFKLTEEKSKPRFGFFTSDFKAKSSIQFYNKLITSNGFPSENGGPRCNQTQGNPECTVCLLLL
Put plainly: FACS on transfected HEK293T cells. The protocol: (§1) Species cross reactivity of the disclosed anti-KLB antibodies were analyzed by FACS analysis using KLB cDNA from mouse, rat, rabbit, cynomolgus monkey and rhesus monkey cloned into pRK mammalian expression vectors transiently transfected into HEK293T cells. The KLB extracellular domain polypeptide sequences that were expressed are as follows: […]

A further experiment deals with T3, mouse KLB (mouse, UniProt Q99N32 53-990).
T3 construct: expressed from KLB cDNA on HEK293T cells and read by FACS; also called msKLB
T3 sequence: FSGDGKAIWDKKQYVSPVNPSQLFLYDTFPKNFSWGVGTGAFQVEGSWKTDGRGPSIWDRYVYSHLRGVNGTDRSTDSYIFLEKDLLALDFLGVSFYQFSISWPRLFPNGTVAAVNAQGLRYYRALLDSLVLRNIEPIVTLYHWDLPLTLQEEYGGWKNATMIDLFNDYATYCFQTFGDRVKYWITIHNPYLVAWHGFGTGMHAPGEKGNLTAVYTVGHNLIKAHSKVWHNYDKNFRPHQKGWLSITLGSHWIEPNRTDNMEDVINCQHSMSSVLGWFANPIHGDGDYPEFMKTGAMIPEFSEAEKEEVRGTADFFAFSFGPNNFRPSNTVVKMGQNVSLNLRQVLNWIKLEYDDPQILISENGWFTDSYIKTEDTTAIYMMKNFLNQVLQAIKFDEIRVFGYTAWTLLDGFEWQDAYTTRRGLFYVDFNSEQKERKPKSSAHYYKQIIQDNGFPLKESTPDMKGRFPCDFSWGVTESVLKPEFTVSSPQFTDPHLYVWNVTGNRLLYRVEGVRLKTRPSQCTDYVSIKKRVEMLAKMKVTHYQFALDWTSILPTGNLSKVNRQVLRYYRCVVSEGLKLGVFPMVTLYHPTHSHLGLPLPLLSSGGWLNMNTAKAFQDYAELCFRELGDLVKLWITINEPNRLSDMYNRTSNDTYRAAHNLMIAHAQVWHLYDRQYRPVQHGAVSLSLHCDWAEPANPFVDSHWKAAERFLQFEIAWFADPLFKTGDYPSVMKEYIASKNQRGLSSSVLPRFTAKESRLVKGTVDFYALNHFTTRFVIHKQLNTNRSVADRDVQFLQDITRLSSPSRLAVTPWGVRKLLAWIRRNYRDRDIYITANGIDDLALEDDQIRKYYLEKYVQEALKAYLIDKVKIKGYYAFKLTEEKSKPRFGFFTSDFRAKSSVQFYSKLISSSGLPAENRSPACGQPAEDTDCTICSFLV
As to the kind of experiment: FACS on transfected HEK293T cells. The protocol: as §1

B1: 6C1 (antibody, V domains shown)
VH: QVQLQQSGDELMKPGASVKISCKVTGNTFSSYWIEWVKQRPGHGLEWIGEILPGSDSTKYVEKFKVKATFTADTSSNTAYMQLSSLTSEDSAVYYCARGGYHYPGWLVYWGQGTLVTVSA
VL: DIVMTQSQKFMSTSVGDRVSVTCKASQNVDSYVAWYQQKAGQSPKPLIYSASYRFSGVPDRFTGSGSGTEFTLTISNVQSEDLAEYFCQQYNISPYTFGGGTKLEIK
notes: murine hybridoma-derived anti-KLB antibody; also called KLBmAb4
B1: the binding result in experiment [1] is “binds”; in the experiment with rabbit KLB (+N-ter FLAG), “binds”; with mouse KLB, “no binding”.

B2: 14C10 (antibody, V domains shown)
VH: QVTLKESGPGILQPSQTLSLTCSFSGFSLSTSAMGIGWIRQPSGKGLEWLAHIWWDDDKRYNPALKSRLTISKDTSRNQVFLKIASVDTADTATYFCARIDGIYDGSFYAMDYWGQGTSVTVSS
VL: DIVLTQSPASLAVSLGQRATISCRASESVDSYGNSFMHWYQQKPGQPPKLLIYRASNLESGIPARFSGSGSRTDFTLTINPVEADDVANYYCQQSNEDYTFGGGTKLEIK
notes: murine hybridoma-derived anti-KLB antibody; also called KLBmAb3
Take B2: the binding result in experiment [1] is given as “binds”; with rabbit KLB (+N-ter FLAG), “binds”; in the experiment with mouse KLB, “no binding”.

B3: 8C5 (antibody, V domains shown)
VH: QVQLKQSGPGLVQPSQSLSVACTVSDFSLTTYGVHWVRQSPGKGLEWLGVIWSGGSTDYNAAFISRLTISKDNSKSQVFFKMNSLQTTDTAIYYCARDYGSTYVDAIDYWGQGTSVTVSS
VL: DIVLTQSPTSLAVSLGQRATISCRASESVESYGNRYMTWYQQKPGQPPKLLIYRAANLQSGIPARFSGSGSRTDFTLTIDPVEADDVATYYCQQSNEDPWTFGGGTKVEIK
notes: murine hybridoma-derived anti-KLB antibody; also called KLBmAb1
As to B3, the binding result in experiment [1] is “binds”; with rabbit KLB (+N-ter FLAG), “no binding”; in the experiment with mouse KLB, “binds”.

B4: 11D4 (antibody, V domains shown)
VH: QVQVKESGPGLVAPSQSLSITCTVSGFSLTNYGVSWIRQPPGKGLEWLGVIWGDGSINYHSALISRLTITKDNSKSQVFLKLNSLEADDTATYYCAKTHDWFDYWGQGTLVTVSA
VL: DIQMTQTPSSLSASLGDRVTINCRASQDISNYFNWYQQKPNGTIKLLIYYTSRLQSGVPSRFSGSGSGTDYSLTISNLEQEDKATYFCHQVRTLPWTFGGGTKLEIK
notes: murine hybridoma-derived anti-KLB antibody; also called KLBmAb5
As to B4, the results for the binding result (in experiment [1]; with rabbit KLB (+N-ter FLAG); with mouse KLB) were “binds”, “binds” and “no binding”, respectively.

The record behind these values is patent US20220064331A1 (Genentech, published 2022).
